The results in this text go back to publication PMC4474532 (The EMBO Journal, 2015).

Data set [1] concerns the molecule itself. The data set can be described thus: AUC; sedimentation velocity, 20°C, PERK LD proteins at 30 μM; 50 mM HEPES pH 7.8, 200 mM NaCl, 2 mM TCEP; c(s) by Sedfit; dimer to tetramer equilibrium.
Data set [2] deals with the molecule itself. The data set can be described thus: crystal structure; mouse PERK LD, untagged, 20 mg/ml, hanging drops, 0.1 M MES/imidazole pH 6.5, NPS mix, 12.5% PEG1000, 12.5% PEG3350, 20% MPD, 18°C; 3.3 Å.
Data set [3] deals with the molecule itself. Kind of data set: crystal structure; human PERK LD, untagged, 5 mg/ml, hanging drops, 0.1 M Tris pH 8.5, 0.2 M MgCl2, 25% w/v PEG3350, 7% glycerol, 18°C; tungstate MAD; 3.1 Å.
Data set [4] concerns the molecule itself. The data set can be described thus: SAXS; H. sapiens PERK LD 1.25 mg/ml (results: 1–5 mg/ml); 50 mM HEPES pH 7.8, 200 mM NaCl, 2 mM TCEP; profiles computed from the crystal structures fitted with OLIGOMER

B1: mouse PERK luminal domain (residues 101–399) (domain or fragment, UniProt Q9Z2B5 101-399, looked up)
chain: LVIISTLDGRIAALDAENDGKKQWDLDVGSGSLVSSSLSKPEVFGNKMIIPSLDGDLFQWDRDRESMEAVPFTVESLLESSYKFGDDVVLVGGKSLITYGLSAYSGKLRYICSALGCRRWDSDEMEEEEDILLLQRTQKTVRAVGPRSGSEKWNFSVGHFELRYIPDMETRAGFIESTFKPGGNKEDSKIISDVEEQEATMLDTVIKVSVADWKVMAFSRKGGRLEWEYQFCTPIASAWLVRDGKVIPISLFDDTSYTASEEALGDEEDIVEAARGATENSVYLGMYRGQLYLQSSVRV
Consider B1, for which the “dimer to tetramer ratio” value in data set [1] was ~1.5 dimer:tetramer. The “stoichiometry N” value in data set [1] turned out to be 4; in data set [2], 2.

B2: human PERK luminal domain (residues 105–403) (domain or fragment, UniProt Q9NZJ5 105-403, looked up)
chain: LVIISTLDGRIAALDPENHGKKQWDLDVGSGSLVSSSLSKPEVFGNKMIIPSLDGALFQWDQDRESMETVPFTVESLLESSYKFGDDVVLVGGKSLTTYGLSAYSGKVRYICSALGCRQWDSDEMEQEEDILLLQRTQKTVRAVGPRSGNEKWNFSVGHFELRYIPDMETRAGFIESTFKPNENTEESKIISDVEEQEAAIMDIVIKVSVADWKVMAFSKKGGHLEWEYQFCTPIASAWLLKDGKVIPISLFDDTSYTSNDDVLEDEEDIVEAARGATENSVYLGMYRGQLYLQSSVRI
Turning to B2, the “stoichiometry N” value in data set [3] was determined as 4. In data set [4], the “dimer to tetramer ratio” value was 1.5 dimer:tetramer and the “stoichiometry N” value stood at 2.
